Measured values from US20050118674A1, “Engineering of Controlled Deamidation Rates in Peptides, Proteins, and Similar Structures” (priority 2003, published 2005).
Where no end group is shown, it is not given here.

Test: First-order nonenzymatic deamidation of pentapeptides in Tris buffer
Assay type: physicochemical
Conditions: 0.15 M Tris HCl; for First-Order Deamidation Halftimes of GlyXxxAsnYyyGly: pH 7.4, 37.0° C., Asn pentapeptides; for First-Order Deamidation Halftimes of GlyXxxGlnYyyGly: pH 7.4, 37.0 ° C., Gln pentapeptides, 52 values measured, rest derived from surface fitting
Outline: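 First-order deamidation rates determined for XxxAsnYyy and XxxGlnYyy pentapeptides in 0.15 M Tris buffer, pH 7.4, 37° C. Not all values were measured directly: several Asn rates were estimated and most Gln rates came from surface fitting.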

Substance | First-Order Deamidation Halftimes of GlyXxxAsnYyyGly [days] | First-Order Deamidation Halftimes of GlyXxxGlnYyyGly [days]
GlyLeuAsnAlaGly (GLNAG; printed: GlyLeuAsnAlaGly) | 25.1 | 
GlySerAsnMetGly (GSNMG; printed: GlySerAsnMetGly) | 54.9 | 
GlyHisAsnGlyGly (GHNGG; printed: GlyHisAsnGlyGly) | 1.14 | 
GlyMetGlnSerGly (GMQSG; printed: GlyMetGlnSerGly) |  | 4100
GlyArgAsnArgGly (GRNRG; printed: GlyArgAsnArgGly) | 67.4 | 
GlyAlaGlnCysGly (GAQCG; printed: GlyAlaGlnCysGly) |  | 1900
GlyLysAsnIleGly (GKNIG; printed: GlyLysAsnIleGly) | 313 | 
GlyAlaAsnLysGly (GANKG; printed: GlyAlaAsnLysGly) | 55.9 | 
GlyPheGlnAlaGly (GFQAG; printed: GlyPheGlnAlaGly) |  | 6300
GlyPheAsnGlyGly (GFNGG; printed: GlyPheAsnGlyGly) | 1.15 | 
GlyProGlnGlyGly (GPQGG; printed: GlyProGlnGlyGly) |  | 630
GlyGlyGlnGlyGly (GGQGG; printed: GlyGlyGlnGlyGly) |  | 650
GlyCysAsnAlaGly (GCNAG; printed: GlyCysAsnAlaGly) | 26.4 | 
GlyCysAsnAspGly (GCNDG; printed: GlyCysAsnAspGly) | 30.6 | 
GlyTyrGlnGlyGly (GYQGG; printed: GlyTyrGlnGlyGly) |  | 850
GlyHisGlnMetGly (GHQMG; printed: GlyHisGlnMetGly) |  | 5200

Substance | First-Order Deamidation Halftimes of GlyXxxAsnYyyGly [days] | First-Order Deamidation Halftimes of GlyXxxGlnYyyGly [days]
GlyProGlnAspGly (GPQDG; printed: GlyProGlnAspGly) |  | 7200
GlyTyrGlnIleGly (GYQIG; printed: GlyTyrGlnIleGly) |  | 7900
GlyPheGlnMetGly (GFQMG; printed: GlyPheGlnMetGly) |  | 5100
GlyGluGlnTyrGly (GEQYG; printed: GlyGluGlnTyrGly) |  | 13000
GlyGluAsnGlyGly (GENGG; printed: GlyGluAsnGlyGly) | 1.45 | 
GlyLeuAsnProGly (GLNPG; printed: GlyLeuAsnProGly) | 10500 | 
GlyAmCysAsnPheGly (CNFG; not fully specified (N-terminus); printed as GlyAmCysAsnPheGly) | 63.3 | 
GlyMetGlnIleGly (GMQIG; printed: GlyMetGlnIleGly) |  | 5000
GlySerGlnTyrGly (GSQYG; printed: GlySerGlnTyrGly) |  | 13000
GlyTyrAsnHisGly (GYNHG; printed: GlyTyrAsnHisGly) | 10.2 | 
GlyAlaGlnHisGly (GAQHG; printed: GlyAlaGlnHisGly) |  | 5500
GlyCysGlnArgGly (GCQRG; printed: GlyCysGlnArgGly) |  | 5100
GlyArgAsnPheGly (GRNFG; printed: GlyArgAsnPheGly) | 68.3 | 
GlyCysAsnGlyGly (GCNGG; printed: GlyCysAsnGlyGly) | 1.14 | 
GlyAlaAsnProGly (GANPG; printed: GlyAlaAsnProGly) | 7370 | 
